The record followed here is publication PMC2904749.

In assay [1] the target is human βB2-crystallin Q70E (human). The assay can be described thus: small angle X-ray scattering.
For assay [2] the target is unchanged. As to the kind of experiment: dynamic light scattering.
Assay [3] deals with human βB2-crystallin doubly deamidated mutant Q70EQ162E (human). The assay can be described thus: small angle X-ray scattering.
Assay [4] shares this target. As to the kind of experiment: dynamic light scattering.
Assay [5] deals with human βB2-crystallin Q162E (human). The assay can be described thus: small angle X-ray scattering.
For assay [6] the target is unchanged. As to the kind of experiment: dynamic light scattering.

For orientation: stoichiometry N means the number of molecules, sites or subunits per partner or assembly. For “human βB2-crystallin Q70E (natural protein)”, the stoichiometry N in assay [1] and in assay [2] was 2 throughout.
Consider “human βB2-crystallin doubly deamidated mutant Q70EQ162E (natural protein)”, for which the stoichiometry N in assay [3] and in assay [4] was 2 in each case.
“human βB2-crystallin Q162E (natural protein)”: the stoichiometry N in assay [5] and in assay [6] was 2 in each case.
